± gives the uncertainty stated by the source.
Test system: HEK293T
Assay: plasma membrane surface immunostaining intensity (anti-HA, deep receptor scanning) (arbitrary fluorescence units); higher = higher plasma membrane expression

Row | Sequence | plasma membrane surface immunostaining intensity (GPCR class: A) | plasma membrane surface immunostaining intensity (GPCR class: A (Olfactory)) | further results
1 | MRFTFTSRCLALFLLLNHPTPILPAFSNQTYPTIEPKPFLYVVGRKKMMDAQYKCYDRMQQLPAYQGEGPYCNRTWDGWLCWDDTPAGVLSYQFCPDYFPDFDPSEKVTKYCDEKGVWFKHPENNRTWSNYTMCNAFTPEKLKNAYVLYYLAIVGHSLSIFTLVISLGIFVFFRSLGCQRVTLHKNMFLTYILNSMIIIIHLVEVVPNGELVRRDPVSCKILHFFHQYMMACNYFWMLCEGIYLHTLIVVAVFTEKQRLRWYYLLGWGFPLVPTTIHAITRAVYFNDNCWLSVETHLLYIIHGPVMAALVVNFFFLLNIVRVLVTKMRETHEAESHMYLKAVKATMILVPLLGIQFVVFPWRPSNKMLGKIYDYVMHSLIHFQGFFVATIYCFCNNEVQTTVKRQWAQFKIQWNQRWGRRPSNRSARAAAAAAEAGDIPIYICHQELRNEPANNQGEESAEIIPLNIIEQESSA [CALCR] | – | – | plasma membrane surface immunostaining intensity (GPCR class: B): 5000 ± 720
2 | MFRQEQPLAEGSFAPMGSLQPDAGNASWNGTEAPGGGARATPYSLQVTLTLVCLAGLLMLLTVFGNVLVIIAVFTSRALKAPQNLFLVSLASADILVATLVIPFSLANEVMGYWYFGKAWCEIYLALDVLFCTSSIVHLCAISLDRYWSITQAIEYNLKRTPRRIKAIIITVWVISAVISFPPLISIEKKGGGGGPQPAEPRCEINDQKWYVISSCIGSFFAPCLIMILVYVRIYQIAKRRTRVPPSRRGPDAVAAPPGGTERRPNGLGPERSAGPGGAEAEPLPTQLNGAPGEPAPAGPRDTDALDLEESSSSDHAERPPGPRRPERGPRGKGKARASQVKPGDSLPRRGPGATGIGTPAAGPGEERVGAAKASRWRGRQNREKRFTFVLAVVIGVFVVCWFPFFFTYTLTAVGCSVPRTLFKFFFWFGYCNSSLNPVIYTIFNHDFRRAFKKILCRGDRKRIV [ADRA2A] | 2600 ± 560 | – | –
3 | MDGTNGSTQTHFILLGFSDRPHLERILFVVILIAYLLTLVGNTTIILVSRLDPHLHTPMYFFLAHLSFLDLSFTTSSIPQLLYNLNGCDKTISYMGCAIQLFLFLGLGGVECLLLAVMAYDRCVAICKPLHYMVIMNPRLCRGLVSVTWGCGVANSLAMSPVTLRLPRCGHHEVDHFLREMPALIRMACVSTVAIEGTVFVLAVGVVLSPLVFILLSYSYIVRAVLQIRSASGRQKAFGTCGSHLTVVSLFYGNIIYMYMQPGASSSQDQGMFLMLFYNIVTPLLNPLIYTLRNREVKGALGRLLLGKRELGKE [OR2W3] | – | 129 ± 7.6 | –
4 | MASPALAAALAVAAAAGPNASGAGERGSGGVANASGASWGPPRGQYSAGAVAGLAAVVGFLIVFTVVGNVLVVIAVLTSRALRAPQNLFLVSLASADILVATLVMPFSLANELMAYWYFGQVWCGVYLALDVLFCTSSIVHLCAISLDRYWSVTQAVEYNLKRTPRRVKATIVAVWLISAVISFPPLVSLYRQPDGAAYPQCGLNDETWYILSSCIGSFFAPCLIMGLVYARIYRVAKLRTRTLSEKRAPVGPDGASPTTENGLGAAAGAGENGHCAPPPADVEPDESSAAAERRRRRGALRRGGRRRAGAEGGAGGADGQGAGPGAAESGALTASRSPGPGGRLSRASSRSVEFFLSRRRRARSSVCRRKVAQAREKRFTFVLAVVMGVFVLCWFPFFFSYSLYGICREACQVPGPLFKFFFWIGYCNSSLNPVIYTVFNQDFRRSFKHILFRRRRRGFRQ [ADRA2C] | 1030 ± 270 | – | –
5 | MEPSATPGAQMGVPPGSREPSPVPPDYEDEFLRYLWRDYLYPKQYEWVLIAAYVAVFVVALVGNTLVCLAVWRNHHMRTVTNYFIVNLSLADVLVTAICLPASLLVDITESWLFGHALCKVIPYLQAVSVSVAVLTLSFIALDRWYAICHPLLFKSTARRARGSILGIWAVSLAIMVPQAAVMECSSVLPELANRTRLFSVCDERWADDLYPKIYHSCFFIVTYLAPLGLMAMAYFQIFRKLWGRQIPGTTSALVRNWKRPSDQLGDLEQGLSGEPQPRARAFLAEVKQMRARRKTAKMLMVVLLVFALCYLPISVLNVLKRVFGMFRQASDREAVYACFTFSHWLVYANSAANPIIYNFLSGKFREQFKAAFSCCLPGLGPCGSLKAPSPRSSASHKSLSLQSRCSISKISEHVVLTSVTTVLP [HCRTR1] | 1070 ± 130 | – | –
6 | MSGESMNFSDVFDSSEDYFVSVNTSYYSVDSEMLLCSLQEVRQFSRLFVPIAYSLICVFGLLGNILVVITFAFYKKARSMTDVYLLNMAIADILFVLTLPFWAVSHATGAWVFSNATCKLLKGIYAINFNCGMLLLTCISMDRYIAIVQATKSFRLRSRTLPRSKIICLVVWGLSVIISSSTFVFNQKYNTQGSDVCEPKYQTVSEPIRWKLLMLGLELLFGFFIPLMFMIFCYTFIVKTLVQAQNSKRHKAIRVIIAVVLVFLACQIPHNMVLLVTAANLGKMNRSCQSEKLIGYTKTVTEVLAFLHCCLNPVLYAFIGQKFRNYFLKILKDLWCVRRKYKSSGFSCAGRYSENISRQTSETADNDNASSFTM [CCR6] | 418 ± 33 | – | –
7 | METNFSTPLNEYEEVSYESAGYTVLRILPLVVLGVTFVLGVLGNGLVIWVAGFRMTRTVTTICYLNLALADFSFTATLPFLIVSMAMGEKWPFGWFLCKLIHIVVDINLFGSVFLIGFIALDRCICVLHPVWAQNHRTVSLAMKVIVGPWILALVLTLPVFLFLTTVTIPNGDTYCTFNFASWGGTPEERLKVAITMLTARGIIRFVIGFSLPMSIVAICYGLIAAKIHKKGMIKSSRPLRVLTAVVASFFICWFPFQLVALLGTVWLKEMLFYGKYKIIDILVNPTSSLAFFNSCLNPMLYVFVGQDFRERLIHSLPTSLERALSEDSAPTNDTAANSASPPAETELQAM [FPR2] | 6515 ± 60 | – | –
8 | MGDWNNSDAVEPIFILRGFPGLEYVHSWLSILFCLAYLVAFMGNVTILSVIWIESSLHQPMYYFISILAVNDLGMSLSTLPTMLAVLWLDAPEIQASACYAQLFFIHTFTFLESSVLLAMAFDRFVAICHPLHYPTILTNSVIGKIGLACLLRSLGVVLPTPLLLRHYHYCHGNALSHAFCLHQDVLRLSCTDARTNSIYGLCVVIATLGVDSIFILLSYVLILNTVLDIASREEQLKALNTCVSHICVVLIFFVPVIGVSMVHRFGKHLSPIVHILMADIYLLLPPVLNPIVYSVRTKQIRLGILHKFVLRRRF [OR51L1] | – | 274 ± 150 | –
9 | MKKENQSFNLDFILLGVTSQQEQNNVFFVIFLCIYPITLTGNLLIILAICADIRLHNPMYFLLANLSLVDIIFSSVTIPKVLANHLLGSKFISFGGCLMQMYFMIALAKADSYTLAAMAYDRAVAISCPLHYTTIMSPRSCILLIAGSWVIGNTSALPHTLLTASLSFCGNQEVANFYCDIMPLLKLSCSDVHFNVKMMYLGVGVFSLPLLCIIVSYVQVFSTVFQVPSTKSLFKAFCTCGSHLTVVFLYYGTTMGMYFRPLTSYSPKDAVITVMYVAVTPALNPFIYSLRNWDMKAALQKLFSKRISS [OR1A2] | – | 207 ± 46 | –
10 | MKAGNFSDTPEFFLLGLSGDPELQPILFMLFLSMYLATMLGNLLIILAVNSDSHLHTPMYFLLSILSLVDICFTSTTMPKMLVNIQAQAQSINYTGCLTQICFVLVFVGLENGILVMMAYDRFVAICHPLRYNVIMNPKLCGLLLLLSFIVSVLDALLHTLMVLQLTFCIDLEIPHFFCELAHILKLACSDVLINNILVYLVTSLLGVVPLSGIIFSYTRIVSSVMKIPSAGGKYKAFSICGSHLIVVSLFYGTGFGVYLSSGATHSSRKGAIASVMYTVVTPMLNPLIYSLRNKDMLKALRKLISRIPSFH [OR7G3] | – | 111 ± 21 | –
11 | MGKENCTTVAEFILLGLSDVPELRVCLFLLFLLIYGVTLLANLGMIALIQVSSRLHTPMYFFLSHLSSVDFCYSSIIVPKMLANIFNKDKAISFLGCMVQFYLFCTCVVTEVFLLAVMAYDRFVAICNPLLYTVTMSWKVRVELASCCYFCGTVCSLIHLCLALRIPFYRSNVINHFFCDLPPVLSLACSDITVNETLLFLVATLNESVTIMIILTSYLLILTTILKMGSAEGRHKAFSTCASHLTAITVFHGTVLSIYCRPSSGNSGDADKVATVFYTVVIPMLNSVIYSLRNKDVKEALRKVMGSKIHS [OR5L1] | – | 145 ± 28 | –
12 | MGMEGLLQNSTNFVLTGLITHPAFPGLLFAVVFSIFVVAITANLVMILLIHMDSRLHTPMYFLLSQLSIMDTIYICITVPKMLQDLLSKDKTISFLGCAVQIFYLTLIGGEFFLLGLMAYDRYVAVCNPLRYPLLMNRRVCLFMVVGSWVGGSLDGFMLTPVTMSFPFCRSREINHFFCEIPAVLKLSCTDTSLYETLMYACCVLMLLIPLSVISVSYTHILLTVHRMNSAEGRRKAFATCSSHIMVVSVFYGAAFYTNVLPHSYHTPEKDKVVSAFYTILTPMLNPLIYSLRNKDVAAALRKVLGRCGSSQSIRVATVIRKG [OR2T35] | – | 126 ± 14 | –
13 | MDNVLPVDSDLSPNISTNTSEPNQFVQPAWQIVLWAAAYTVIVVTSVVGNVVVMWIILAHKRMRTVTNYFLVNLAFAEASMAAFNTVVNFTYAVHNEWYYGLFYCKFHNFFPIAAVFASIYSMTAVAFDRYMAIIHPLQPRLSATATKVVICVIWVLALLLAFPQGYYSTTETMPSRVVCMIEWPEHPNKIYEKVYHICVTVLIYFLPLLVIGYAYTVVGITLWASEIPGDSSDRYHEQVSAKRKVVKMMIVVVCTFAICWLPFHIFFLLPYINPDLYLKKFIQQVYLAIMWLAMSSTMYNPIIYCCLNDRFRLGFKHAFRCCPFISAGDYEGLEMKSTRYLQTQGSVYKVSRLETTISTVVGAHEEEPEDGPKATPSSLDLTSNCSSRSDSKTMTESFSFSSNVLS [TACR1] | 6280 ± 110 | – | –
14 | METTMGFMDDNATNTSTSFLSVLNPHGAHATSFPFNFSYSDYDMPLDEDEDVTNSRTFFAAKIVIGMALVGIMLVCGIGNFIFIAALVRYKKLRNLTNLLIANLAISDFLVAIVCCPFEMDYYVVRQLSWEHGHVLCTSVNYLRTVSLYVSTNALLAIAIDRYLAIVHPLRPRMKCQTATGLIALVWTVSILIAIPSAYFTTETVLVIVKSQEKIFCGQIWPVDQQLYYKSYFLFIFGIEFVGPVVTMTLCYARISRELWFKAVPGFQTEQIRKRLRCRRKTVLVLMCILTAYVLCWAPFYGFTIVRDFFPTVFVKEKHYLTAFYIVECIAMSNSMINTLCFVTVKNDTVKYFKKIMLLHWKASYNGGKSSADLDLKTIGMPATEEVDCIRLK [PROKR1] | 2260 ± 380 | – | –
15 | MVFLSGNASDSSNCTQPPAPVNISKAILLGVILGGLILFGVLGNILVILSVACHRHLHSVTHYYIVNLAVADLLLTSTVLPFSAIFEVLGYWAFGRVFCNIWAAVDVLCCTASIMGLCIISIDRYIGVSYPLRYPTIVTQRRGLMALLCVWALSLVISIGPLFGWRQPAPEDETICQINEEPGYVLFSALGSFYLPLAIILVMYCRVYVVAKRESRGLKSGLKTDKSDSEQVTLRIHRKNAPAGGSGMASAKTKTHFSVRLLKFSREKKAAKTLGIVVGCFVLCWLPFFLVMPIGSFFPDFKPSETVFKIVFWLGYLNSCINPIIYPCSSQEFKKAFQNVLRIQCLCRKQSSKHALGYTLHPPSQAVEGQHKDMVRIPVGSRETFYRISKTDGVCEWKFFSSMPRGSARITVSKDQSSCTTARVRSKSFLQVCCCVGPSTPSLDKNHQVPTIKVHTISLSENGEEV [ADRA1A] | 2110 ± 600 | – | –
16 | MDSTIPVLGTELTPINGREETPCYKQTLSFTGLTCIVSLVALTGNAVVLWLLGCRMRRNAVSIYILNLVAADFLFLSGHIICSPLRLINIRHPISKILSPVMTFPYFIGLSMLSAISTERCLSILWPIWYHCRRPRYLSSVMCVLLWALSLLRSILEWMFCDFLFSGANSVWCETSDFITIAWLVFLCVVLCGSSLVLLVRILCGSRKMPLTRLYVTILLTVLVFLLCGLPFGIQWALFSRIHLDWKVLFCHVHLVSIFLSALNSSANPIIYFFVGSFRQRQNRQNLKLVLQRALQDTPEVDEGGGWLPQETLELSGSRLEQ [MRGPRX3] | 135 ± 14 | – | –

Reference: the supplement of paper PMC12458215
